The numbers were not newly measured in publication PMC7294537, which cites them from elsewhere.

One series concerns the target lysozyme (Gallus gallus) (UniProt P00698).
The target of series [1] is CUE domain CUE (Saccharomyces cerevisiae) (UniProt P36075).
Sequence of CUE domain CUE (Saccharomyces cerevisiae) (P36075 8-51): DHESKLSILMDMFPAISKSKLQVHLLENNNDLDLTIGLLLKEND

Sequence of ubiquitin (P0CG63 1-76): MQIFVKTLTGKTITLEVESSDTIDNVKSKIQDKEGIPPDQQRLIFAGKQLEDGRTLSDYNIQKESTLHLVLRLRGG
Sequence of lysozyme (P00698 19-147): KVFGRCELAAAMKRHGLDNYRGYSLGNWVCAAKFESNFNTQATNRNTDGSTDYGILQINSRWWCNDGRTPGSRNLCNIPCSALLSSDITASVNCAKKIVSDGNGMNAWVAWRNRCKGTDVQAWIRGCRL

As for lysozyme (from UniProt P00698), the Kd with lysozyme (Gallus gallus) was 2710 µM.

Turning to ubiquitin (from UniProt P0CG63), in series [1], the Kd was 155 µM.

Usually Kd stands for the concentration at which binding is half-saturated.
